The values that follow come from patent US20260167731A1.

Assay [1] concerns the target human CCR8 (human) (UniProt P51685). The assay can be described thus: flow cytometry, hCCR8 transfected CHOK1 cells.
For assay [2] the target is unchanged. The assay can be described thus: cell-based or functional assay.

In the assay with human CCR8 (human) [1], “murine anti-human CCR8 monoclonal antibody L263G8” returned a % positive cells of 86.5% and an MFI fold change to isotype ctrl of 19.8 fold.

In the assay with human CCR8 (human) [2], “hCCL1 (from UniProt P22362 24-96) (ligand)” registered an EC80 of hCCL1, hCCR8 Gi2 BRET, HEK-293 in suspension (protocol #1) of 6 nM and an EC80 of hCCL1, hCCR8 Gi2 BRET, adherent HEK-293 (protocol #4) of 0.6 nM.
